US20250277020A1 (Boehringer Ingelheim, published 2025)
Positions count from the first letter of the chain named. Values joined by “and” are separate entries in the source; they are usually repeats but may differ in a detail not shown here. Equal entries are not always repeated. Each block holds one binder with its values, some of them ahead of it.

What was measured:
[1] = target: T1, Human N-terminal fragment of CTGF (CTGF-NTF) (human, UniProt P29279 27-180); experiment: SPR Biacore 8K+, mAb captured on Protein A/G, hCTGF NTF as analyte
T1 construct: Recombinantly expressed; also called hCTGF NTF; CTGF N-terminal fragment
T1 chain: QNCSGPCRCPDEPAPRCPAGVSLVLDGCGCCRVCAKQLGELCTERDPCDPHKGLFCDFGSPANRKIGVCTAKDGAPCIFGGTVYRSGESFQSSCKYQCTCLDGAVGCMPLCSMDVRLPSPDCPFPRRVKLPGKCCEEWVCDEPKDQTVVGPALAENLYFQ
Description: (§1) Binding affinity of anti-CTGF antibodies H1 (having the light chain of SEQ ID NO: 22 and the heavy chain of SEQ ID NO: 23), H2 (having the light chain of SEQ ID NO: 24 and the heavy chain of SEQ ID NO: 25), F1, and A97 for full length human CTGF or human CTGF N-terminal fragment are determined by surface plasmon resonance (SPR).
(§2) Surface plasmon resonance is conducted using a Biacore 8K+ (Cytiva). Protein A/G (Thermo Scientific) is amine coupled to CM5 Sensor S Chip (Cytiva). For binding to hCTGF N-terminal fragment (NTF), anti-CTGF antibody (1 μg/ml) is captured on the Protein A/G surface, followed by various concentrations of antigen (100 nM to 0.78 nM; 2-fold dilutions). For binding to hCTGF full length, anti-CTGF antibody (0.2 μg/ml) is captured followed by various concentrations of antigen (10 nM to 0.156 nM; 2-fold dilutions).

Full-length human CTGF [2] = target: T2, Full-length human CTGF (human, UniProt P29279 27-349); experiment: SPR Biacore 8K+, mAb captured on Protein A/G, full length hCTGF as analyte
T2 construct: Corresponds to NCBI NP_001892.1 with the signal peptide omitted; purchased from R&D Systems; also called hCTGF full length; full length CTGF
T2 sequence: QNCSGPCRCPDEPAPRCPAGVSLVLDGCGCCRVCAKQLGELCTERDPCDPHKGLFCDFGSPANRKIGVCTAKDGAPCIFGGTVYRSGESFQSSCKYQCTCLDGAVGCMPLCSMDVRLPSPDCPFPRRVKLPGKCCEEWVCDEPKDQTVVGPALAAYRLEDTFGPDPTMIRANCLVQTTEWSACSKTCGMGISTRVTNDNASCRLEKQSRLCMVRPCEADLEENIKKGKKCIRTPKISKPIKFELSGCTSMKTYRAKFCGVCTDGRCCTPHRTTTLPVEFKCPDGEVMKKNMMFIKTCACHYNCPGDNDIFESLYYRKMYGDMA
Description: as §1, §2

Full-length human CTGF [3] = target: T2, Full-length human CTGF; experiment: SPR, full length CTGF; Table 15 screen of humanized variants, SPR on full length CTGF
Method in brief: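 Humanized antibody variants were made by co-expressing each of eight heavy-chain variable-region variants with each of sixteen light-chain variable-region variants in CHO cells, giving 128 combinations. Binding affinity (Kd) of each combination for full-length human CTGF was determined by surface plasmon resonance. The text gives no instrument, chip, concentrations, temperature, buffer, replicates or fitting model for this measurement.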

Full-length human CTGF [4] = target: T2, Full-length human CTGF; experiment: SPR, full length CTGF

Kd [1]: 0.14 nM
koff [1]: 4e-05 s⁻¹
kon [1]: 290000 M⁻¹ s⁻¹
Kd (Full-length human CTGF [2]): 0.0018 nM
koff (Full-length human CTGF [2]): 4.8e-06 s⁻¹
kon (Full-length human CTGF [2]): 2.7e+06 M⁻¹ s⁻¹
Kd (Full-length human CTGF [3]): 0.14 nM
B1: Antibody A97 (antibody, human IgG1, kappa, L234A L235A)
light: VVMTQTPLSLSVSLGDQASISCKSSQSIVHYNGNTYLEWYLQKPGQSPQLLIYKVSSRASGVPDRFSGSGSGTDFTLKISRVEAEDLGVYYCFQGSHFPLTFGQGTKLEIKRTVAAPSVFIFPPSDEQLKSGTASVVCLLNNFYPREAKVQWKVDNALQSGNSQESVTEQDSKDSTYSLSSTLTLSKADYEKHKVYACEVTHQGLSSPVTKSFNRGEC
heavy: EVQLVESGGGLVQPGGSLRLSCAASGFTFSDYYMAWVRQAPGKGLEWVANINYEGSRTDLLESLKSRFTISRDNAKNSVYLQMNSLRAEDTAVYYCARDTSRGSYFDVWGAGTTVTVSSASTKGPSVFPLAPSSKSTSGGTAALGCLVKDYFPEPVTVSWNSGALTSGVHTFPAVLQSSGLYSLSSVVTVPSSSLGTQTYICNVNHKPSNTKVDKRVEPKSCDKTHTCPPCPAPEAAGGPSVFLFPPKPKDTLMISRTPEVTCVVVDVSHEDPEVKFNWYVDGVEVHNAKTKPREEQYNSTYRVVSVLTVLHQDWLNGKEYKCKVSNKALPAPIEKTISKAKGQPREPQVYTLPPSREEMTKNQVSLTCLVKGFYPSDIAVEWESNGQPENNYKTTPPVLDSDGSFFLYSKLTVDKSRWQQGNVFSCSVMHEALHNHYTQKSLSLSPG
notes: also called Antibody 97

Kd [1]: 8.82 nM and 8.8 nM
koff [1]: 0.0107 s⁻¹
kon [1]: 1.22e+06 M⁻¹ s⁻¹
Kd (Full-length human CTGF [2]): 0.0983 nM and 0.098 nM
koff (Full-length human CTGF [2]): 0.000671 s⁻¹
kon (Full-length human CTGF [2]): 6.83e+06 M⁻¹ s⁻¹
B3: Antibody H1 (antibody, human IgG1, lambda, V domains shown)
VH: EVTLKESGPVLVKPTETLTLTCTVSGFSLSTFGVHWIRQPPGKGLEWLGVIWRRGGTDYNAAFMSRLTISKDTSKSQVVFTMTNMDPVDTATYYCARDGGFDYWGQGTTVTVSS
VL: ETVVTQEPSLTVSPGGTVTLTCRSSIGAVTTSNYANWVQQKPGQAFRGLIGGTSNRAPWTPARFSGSLLGGKAALTLSGVQPEDEAEYYCALWYSTHYVFGGGTKLTVLG
notes: Comparator anti-CTGF antibody, full length

Second part, the binder before the results:

B2: A13 (antibody, human IgG1, kappa, L234A L235A)
light: B1 light with G33E, N34K
heavy: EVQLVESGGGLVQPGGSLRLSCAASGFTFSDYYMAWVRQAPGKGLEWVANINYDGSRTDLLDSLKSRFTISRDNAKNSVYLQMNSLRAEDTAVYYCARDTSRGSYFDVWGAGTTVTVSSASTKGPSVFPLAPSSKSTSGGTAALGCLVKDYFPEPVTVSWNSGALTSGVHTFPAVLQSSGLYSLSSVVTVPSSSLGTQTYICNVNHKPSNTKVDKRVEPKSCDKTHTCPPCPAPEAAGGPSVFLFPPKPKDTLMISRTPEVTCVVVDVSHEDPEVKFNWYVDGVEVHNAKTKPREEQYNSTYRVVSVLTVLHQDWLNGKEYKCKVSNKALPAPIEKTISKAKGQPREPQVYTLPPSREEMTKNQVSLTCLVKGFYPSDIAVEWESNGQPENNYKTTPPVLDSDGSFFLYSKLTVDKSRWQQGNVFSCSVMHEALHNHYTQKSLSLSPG
notes: also called antibody A13
Kd (Full-length human CTGF [4]): 0.25 nM

B4: Antibody F1 (antibody, V domains shown)
VH: EGQLVQSGGGLVHPGGSLRLSCAGSGFTFSSYGMHWVRQAPGKGLEWVSGIGTGGGTYSTDSVKGRFTISRDNAKNSLYLQMNSLRAEDMAVYYCARGDYYGSGSFFDCWGQGTLVTVSS
VL: DIQMTQSPSSLSASVGDRVTITCRASQGISSWLAWYQQKPEKAPKSLIYAASSLQSGVPSRFSGSGSGTDFTLTISSLQPEDFATYYCQQYNSYPPTFGQGTKLEIKR
notes: as for B3
Kd [1]: 30.3 nM and 30 nM
koff [1]: 0.0105 s⁻¹
kon [1]: 345000 M⁻¹ s⁻¹
Kd (Full-length human CTGF [2]): 0.247 nM and 0.25 nM
koff (Full-length human CTGF [2]): 0.00337 s⁻¹
kon (Full-length human CTGF [2]): 1.37e+07 M⁻¹ s⁻¹

B5: Antibody H2 (antibody, human IgG1, kappa, V domains shown)
VH: EVQLVESGGGLVQPGGSLRLSCAASGFSFNTYAMNWVRQAPGKGLEWVARIRTKSNNYATYYADSVKDRFTISRDDSESSLYLQMNSLKTEDTAVYYCVETGFAYWDQGTLVTVSS
VL: EIVLTQSPATLSLSPGERATLSCSASSSVSYMHWFQQKPGQSPKLWIYSTSNLASGVPARFSGSGSGTDYTLTISSLEPEDFAVYYCQQRSSYPLTFGQGTKLEIKR
notes: as for B3
Kd [1]: 45.7 nM and 46 nM
koff [1]: 0.0175 s⁻¹
kon [1]: 383000 M⁻¹ s⁻¹
Kd (Full-length human CTGF [2]): 0.554 nM and 0.55 nM
koff (Full-length human CTGF [2]): 0.00149 s⁻¹
kon (Full-length human CTGF [2]): 2.7e+06 M⁻¹ s⁻¹
